Target: Aβ42 monomer (UniProt P05067 672-713)
Experiment: NMR titration

Aβ42 monomer, sequence (P05067 672-713): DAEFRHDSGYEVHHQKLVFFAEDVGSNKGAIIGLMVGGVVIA

GFLLHQK [P_(active)]: binds.

Source: paper PMC7346273 (ACS Omega, 2020)
